Test results as given in publication PMC2680043, “Characterization of a Novel Small Molecule Subtype Specific Estrogen-Related Receptor α Antagonist in MCF-7 Breast Cancer Cells” (PLoS ONE, 2009).

Key:
Assay in all cases: pull-down; biotinylated coactivator RID bound to streptavidin beaded agarose; in vitro translated [35S]-labeled ERRα added in 1x TBS with 10 µM Compound A, 4 hours at 4°C; SDS gel, phosphorimaging; compared with the DMSO sample
Settings in all cases: one partner purified
[1] = biological target: T1, AIB1 receptor interaction domain (RID), aa 557-773, biotinylated (UniProt Q9Y6Q9 557-773, biotinylated (sites not given))
T1 construct: also called AIB1 RID; SRC-3
T1 sequence (looked up): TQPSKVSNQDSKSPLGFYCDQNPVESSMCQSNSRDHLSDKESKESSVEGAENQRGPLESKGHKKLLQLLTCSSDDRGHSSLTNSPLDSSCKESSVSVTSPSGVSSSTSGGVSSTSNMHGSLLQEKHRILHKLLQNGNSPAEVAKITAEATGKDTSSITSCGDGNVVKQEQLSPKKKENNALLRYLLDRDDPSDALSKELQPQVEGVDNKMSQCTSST

[2] = biological target: T2, GRIP-1 receptor interaction domain (RID), aa 565-798, biotinylated (UniProt Q61026 565-798, biotinylated (sites not given))
T2 construct: also called GRIP-1 RID; SRC-2
T2 sequence (looked up): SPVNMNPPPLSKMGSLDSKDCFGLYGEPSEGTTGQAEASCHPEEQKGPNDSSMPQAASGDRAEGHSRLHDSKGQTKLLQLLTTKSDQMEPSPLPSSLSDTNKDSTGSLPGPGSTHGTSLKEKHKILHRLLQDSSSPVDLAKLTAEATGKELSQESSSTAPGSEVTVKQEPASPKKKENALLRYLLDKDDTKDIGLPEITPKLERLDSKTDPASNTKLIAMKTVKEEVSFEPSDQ

[3] = biological target: T3, PGC-1α receptor interaction domain (RID), aa 1-338, biotinylated (UniProt Q9UBK2 1-338, biotinylated (sites not given))
T3 construct: also called PGC-1α RID; PPARGC1A
T3 sequence (looked up): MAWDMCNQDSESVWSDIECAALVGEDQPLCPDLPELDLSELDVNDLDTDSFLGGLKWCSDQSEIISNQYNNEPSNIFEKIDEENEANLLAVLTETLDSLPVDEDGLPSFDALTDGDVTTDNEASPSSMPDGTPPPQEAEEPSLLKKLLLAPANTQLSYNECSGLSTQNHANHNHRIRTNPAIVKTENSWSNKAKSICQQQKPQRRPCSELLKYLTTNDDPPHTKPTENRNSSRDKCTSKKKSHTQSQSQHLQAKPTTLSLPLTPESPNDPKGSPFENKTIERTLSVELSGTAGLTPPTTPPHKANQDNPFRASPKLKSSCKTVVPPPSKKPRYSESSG

B1: full-length human estrogen-related receptor α (ERRα), [35S]methionine-labeled (receptor, UniProt P11474 1-423, looked up)
chain: MSSQVVGIEPLYIKAEPASPDSPKGSSETETEPPVALAPGPAPTRCLPGHKEEEDGEGAGPGEQGGGKLVLSSLPKRLCLVCGDVASGYHYGVASCEACKAFFKRTIQGSIEYSCPASNECEITKRRRKACQACRFTKCLRVGMLKEGVRLDRVRGGRQKYKRRPEVDPLPFPGPFPAGPLAVAGGPRKTAAPVNALVSHLLVVEPEKLYAMPDPAGPDGHLPAVATLCDLFDREIVVTISWAKSIPGFSSLSLSDQMSVLQSVWMEVLVLGVAQRSLPLQDELAFAEDLVLDEEGARAAGLGELGAALLQLVRRLQALRLEREEYVLLKALALANSDSVHIEDAEAVEQLREALHEALLEYEAGRAGPGGGAERRRAGRLLLTLPLLRQTAGKVLAHFYGVKLEGKVPMHKLFLEMLEAMMD
modifications: [35S]methionine label
notes: estrogen-related receptor alpha, human, full length, amplified from human brain Marathon-ready cDNA and cloned into pcDNA3.1(+); No tag is named for this construct; also called hERRα; ESRRA; source: in vitro translated (TnT coupled reticulocyte lysate system, Promega), [35S]methionine added
percent reduction of the interaction with 10 µM Compound A against vehicle (DMSO) [1]: 35% | percent reduction of the interaction with 10 µM Compound A against vehicle (DMSO) [2]: 29% | percent reduction of the interaction with 10 µM Compound A against vehicle (DMSO) [3]: 81%
